Experimental data reported in the supplement of paper PMC7877785.
± gives the uncertainty stated by the source.

Experiment: self-splicing fitness, log relative to wild type (ln ratio); higher = more splicing; Tetrahymena group I intron in knt gene, E. coli kanamycin selection, DiMSum; sequences stand for … in CUCUCU…GGAGGGAAAAGUUAUCAGGCAUGCACCUGGUAGCUAGUCUUUAAACCAAUAGAUUGCAUCGGUUUAAAAGGCAAGACCGUCAAAUUGCGGGAAAGGGGUCAACAGCCGUUCAGUACCAAGUCUCAGGGGAAACUUUGAGAUGGCCUUGCAAAGGGUAUGGUAAUAAGCUGACGGACAUGGUCCUAACCACGCAGCCAAGUCCUAAGUCAACAGAUCUUCUGUUGAUAUGGAUGCAGUUCACAGACUAAAUGUCGGUCGGGGAAGAUGUAUUCUUCUCAUAAGAUAUAGUCGGACCUCUCCUUAAUGGGAGCUAGCGGAUGAAGUGAUGCAACACUGGAGCCGCUGGGAACUAAUUUGUAUGCGAAAGUAUAUUGAUUAGUUUUGGAGUACUCGUGGUCG
Method in brief: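 The eight P1ex-region nucleotides of an intron in the knt kanamycin-resistance gene on pET-22b(+) were all randomised and the library put into E. coli BL21(DE3). Six replicate transformations were grown overnight at 37°C or 30°C on LB agar with or without 25 μg/mL kanamycin, together with 100 μg/mL carbenicillin, 50 μM IPTG and 0.2% rhamnose. Colonies were pooled and amplicon-sequenced on an Illumina HiSeq 2500. Fitness from DiMSum is the error-weighted combination of wild-type-normalised replicate fold changes, kanamycin over none.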

Sequence | self-splicing fitness (ln) (30 °C) | self-splicing fitness (ln) (37 °C)
AUUAAGCAAUAUUACGUUGC | -3.29 ± 0.23 | -3.01 ± 0.37
AUUAAGCAAUAUUACGUUGG | -3.38 ± 0.28 | -2.23 ± 0.28
AUUCAGCAAUAUUACGAAAC | -1.17 ± 0.061 | -0.231 ± 0.1
AUUCAGCAAUAUUACGAACA | -0.36 ± 0.099 | -0.341 ± 0.11
AUUCAGCAAUAUUACGAAUA | -2.49 ± 0.23 | -1.08 ± 0.17
AUUCAGCAAUAUUACGAUGA | -0.652 ± 0.14 | -0.36 ± 0.15
AUUCAGCAAUAUUACGAUGG | -2.57 ± 0.16 | -0.688 ± 0.15
AUUCAGCAAUAUUACGAUGU | 0.173 ± 0.082 | 0.209 ± 0.099
AUUCAGCAAUAUUACGCAUU | -0.534 ± 0.076 | -0.427 ± 0.095
AUUCAGCAAUAUUACGCCCG | -1.85 ± 0.34 | 
AUUCAGCAAUAUUACGCGCG | -0.817 ± 0.12 | 0.873 ± 0.15
AUUCAGCAAUAUUACGCGGA | -1.73 ± 0.19 | -0.735 ± 0.14
AUUCAGCAAUAUUACGCUAG | -1.56 ± 0.13 | -0.152 ± 0.14
AUUCAGCAAUAUUACGGCGC | -0.389 ± 0.099 | -0.346 ± 0.13
AUUCAGCAAUAUUACGGGAU | -4.6 ± 0.27 | -2.32 ± 0.2
AUUCAGCAAUAUUACGGGCC | -2.57 ± 0.33 | -1.82 ± 0.34
AUUCAGCAAUAUUACGUAAG | -0.27 ± 0.069 | -0.22 ± 0.093
AUUCAGCAAUAUUACGUACU | 0.26 ± 0.079 | -0.011 ± 0.095
AUUCAGCAAUAUUACGUAGC | -3.44 ± 0.26 | -1.43 ± 0.19
AUUCAGCAAUAUUACGUCCA | -1.19 ± 0.17 | -1.55 ± 0.23
AUUCAGCAAUAUUACGUCUC | -1.97 ± 0.14 | -0.374 ± 0.13
AUUCAGCAAUAUUACGUUUC | -3.75 ± 0.16 | -2.13 ± 0.24
AUUGAGCAAUAUUACGACAC | -2.36 ± 0.19 | -1.45 ± 0.22
AUUGAGCAAUAUUACGAUCU | -1.28 ± 0.11 | -0.471 ± 0.14

Sequence | self-splicing fitness (ln) (30 °C) | self-splicing fitness (ln) (37 °C)
AUUGAGCAAUAUUACGAUGU | -2.26 ± 0.11 | -1.41 ± 0.16
AUUGAGCAAUAUUACGCACA | -1.81 ± 0.16 | -1.41 ± 0.24
AUUGAGCAAUAUUACGCAUA | -3 ± 0.21 | -2.47 ± 0.24
AUUGAGCAAUAUUACGCGUG | -2.28 ± 0.16 | -2.32 ± 0.23
AUUGAGCAAUAUUACGCUGG | -2.76 ± 0.34 | -1.24 ± 0.25
AUUGAGCAAUAUUACGGAUA | -2.15 ± 0.28 | -1.57 ± 0.25
AUUGAGCAAUAUUACGGCAC | -3.48 ± 0.37 | -0.518 ± 0.33
AUUGAGCAAUAUUACGGCAG | -2.56 ± 0.18 | -1.38 ± 0.27
AUUGAGCAAUAUUACGGGAU | -3.29 ± 0.23 | -1.96 ± 0.15
AUUGAGCAAUAUUACGGUAU | -2.06 ± 0.13 | -1.59 ± 0.18
AUUGAGCAAUAUUACGGUUC | -3.69 ± 0.33 | -2.16 ± 0.25
AUUGAGCAAUAUUACGUCGA | -3.47 ± 0.31 | -1.18 ± 0.25
AUUGAGCAAUAUUACGUUCG | -1.65 ± 0.13 | -1.14 ± 0.14
AUUGAGCAAUAUUACGUUCU | -2.53 ± 0.14 | -1.22 ± 0.15
AUUUAGCAAUAUUACGAAAA | -1.99 ± 0.26 | -1.01 ± 0.23
AUUUAGCAAUAUUACGAACU | 0.198 ± 0.13 | 0.211 ± 0.14
AUUUAGCAAUAUUACGAAUU | -3.21 ± 0.35 | -1.85 ± 0.38
AUUUAGCAAUAUUACGACAA | -1.36 ± 0.2 | -0.936 ± 0.22
AUUUAGCAAUAUUACGACCC | -1.16 ± 0.28 | -0.0521 ± 0.3
AUUUAGCAAUAUUACGAUUU | -0.123 ± 0.12 | 0.23 ± 0.13
AUUUAGCAAUAUUACGCAAG | -2.59 ± 0.32 | -0.488 ± 0.14
AUUUAGCAAUAUUACGCACC | -1.01 ± 0.18 | -0.21 ± 0.2
AUUUAGCAAUAUUACGCAUC | -3.58 ± 0.19 | -3.27 ± 0.32
AUUUAGCAAUAUUACGCAUU | -1.7 ± 0.11 | -0.617 ± 0.13

Sequence | self-splicing fitness (ln) (30 °C) | self-splicing fitness (ln) (37 °C)
AUUUAGCAAUAUUACGCCUC |  | -0.949 ± 0.27
AUUUAGCAAUAUUACGCGAA | -3.01 ± 0.21 | -0.549 ± 0.16
AUUUAGCAAUAUUACGCGCG | -1.28 ± 0.2 | -0.257 ± 0.22
AUUUAGCAAUAUUACGCGUA | -1.36 ± 0.12 | -1 ± 0.14
AUUUAGCAAUAUUACGCUAG | -0.961 ± 0.097 | -0.937 ± 0.12
AUUUAGCAAUAUUACGCUAU | -3.64 ± 0.3 | -0.748 ± 0.23
AUUUAGCAAUAUUACGCUUC | -2.33 ± 0.5 | 
AUUUAGCAAUAUUACGGCUU | -0.173 ± 0.12 | 0.0373 ± 0.15
AUUUAGCAAUAUUACGGGAA | -2.24 ± 0.26 | -1.84 ± 0.19
AUUUAGCAAUAUUACGGGAG | -2.97 ± 0.41 | -0.342 ± 0.16
AUUUAGCAAUAUUACGGUAA | -1.59 ± 0.17 | -1.54 ± 0.17
AUUUAGCAAUAUUACGGUAU | -1.51 ± 0.088 | -0.753 ± 0.089
AUUUAGCAAUAUUACGGUCU | -0.911 ± 0.1 | -0.391 ± 0.15
AUUUAGCAAUAUUACGUACC | -0.819 ± 0.45 | -1.04 ± 0.31
AUUUAGCAAUAUUACGUCUA | -0.829 ± 0.15 | 0.0394 ± 0.15
AUUUAGCAAUAUUACGUGAA | -2.53 ± 0.14 | -0.614 ± 0.12
AUUUAGCAAUAUUACGUUGG | -3.51 ± 0.2 | -2.62 ± 0.22
AUUUAGCAAUAUUACGUUUA | -1.97 ± 0.19 | -1.07 ± 0.21
CAAAAGCAAUAUUACGAAAU | -3.75 ± 0.17 | -2.89 ± 0.23
CAAAAGCAAUAUUACGAAGA | -2.23 ± 0.28 | -1.43 ± 0.17
CAAAAGCAAUAUUACGACCA | -1.95 ± 0.2 | -1.48 ± 0.19
CAAAAGCAAUAUUACGACGA | -0.512 ± 0.09 | -0.343 ± 0.094
CAAAAGCAAUAUUACGAUAA | -2.29 ± 0.1 | -0.871 ± 0.099
CAAAAGCAAUAUUACGAUCA | -1.42 ± 0.12 | -1.25 ± 0.12

Sequence | self-splicing fitness (ln) (30 °C) | self-splicing fitness (ln) (37 °C)
CAAAAGCAAUAUUACGAUCU | -2.14 ± 0.078 | -0.593 ± 0.09
CAAAAGCAAUAUUACGAUUA | -0.53 ± 0.084 | -0.187 ± 0.087
CAAAAGCAAUAUUACGCACU | -1.57 ± 0.091 | -0.654 ± 0.089
CAAAAGCAAUAUUACGCCCA | -1.69 ± 0.21 | -0.538 ± 0.2
CAAAAGCAAUAUUACGCCGG | -0.401 ± 0.098 | -0.104 ± 0.13
CAAAAGCAAUAUUACGCCUC | -3.57 ± 0.29 | -1.76 ± 0.25
CAAAAGCAAUAUUACGCGGU | -3.58 ± 0.2 | -2.46 ± 0.24
CAAAAGCAAUAUUACGCUAA | -3.66 ± 0.25 | -2.1 ± 0.21
CAAAAGCAAUAUUACGCUAG | -3.12 ± 0.12 | -2.26 ± 0.14
CAAAAGCAAUAUUACGGCAA | -1.96 ± 0.17 | -0.93 ± 0.14
CAAAAGCAAUAUUACGGCAC | -2.9 ± 0.14 | -2.09 ± 0.15
CAAAAGCAAUAUUACGGCAG | 0.126 ± 0.077 | -0.164 ± 0.089
CAAAAGCAAUAUUACGGCCU | -1.44 ± 0.14 | -1.25 ± 0.12
CAAAAGCAAUAUUACGGCGG | -0.363 ± 0.061 | -0.395 ± 0.079
CAAAAGCAAUAUUACGGCUA | -0.892 ± 0.088 | -0.809 ± 0.083
CAAAAGCAAUAUUACGGUAA | -1.91 ± 0.12 | -1.45 ± 0.15
CAAAAGCAAUAUUACGGUGU | -4.34 ± 0.22 | -2.36 ± 0.19
CAAAAGCAAUAUUACGUACC | -2.56 ± 0.15 | -1.33 ± 0.15
CAAAAGCAAUAUUACGUUAC | -3.12 ± 0.22 | -2.33 ± 0.23
CAAAAGCAAUAUUACGUUAG | -1.57 ± 0.064 | -0.632 ± 0.084
CAAAAGCAAUAUUACGUUCG | -0.43 ± 0.051 | 0.246 ± 0.066
CAAAAGCAAUAUUACGUUGG | -2.47 ± 0.088 | -1.48 ± 0.1
CAACAGCAAUAUUACGAAAC | -3.87 ± 0.2 | -2.01 ± 0.17
CAACAGCAAUAUUACGAAAG | -0.908 ± 0.053 | 0.316 ± 0.079
